The record followed here is article PMC7418079.

The target in the experiment is Enterovirus D68 virion, B1 clade isolate US/MO/14–18947 (Enterovirus D68).

B1: mAb EV68–159 (antibody, V domains shown)
VH: EVQLVESGGGLVKPGGLRLSCAASGFTFSTYIMTWVRQAPGRGLEWVSSISTSSVYTFYADSLKGRFTISRDNAKNSVYLQMNSLRADDTAVYYCAREEGFRAYNLYWGQGTLVTVSS
VL: QSVLTQPPSASGTPGQRVTISCSGSSSNIEYNYVYWYQKFPGTAPKLLIYKNNQRPSGVPDRFSGSKSGTSASLAISGLRSEDEGDYYCAAWDDILSGVVFGGGTKLTVL
In turn, B1 returned an IC50 of neutralisation of a B1 clade EV-D68 isolate, CCID50 assay on RD cells of 0.32 ng/mL.
